Measured values reported in patent publication US7374923B2, “Polypeptide” (Astellas Pharma Inc., priority 2002, dated 2008).

Columns and labels:
MD8S protein = experiment: Inhibition of digestion of recombinant IGFBP-5 by MD8S protein (western blotting); assay type: biochemical, human
Experimental: The MD8S enzyme solution obtained in Example 8(1) was reacted with recombinant IGFBP-5 obtained in Example 9(1) in a 50 mmol/L tris-HCl (pH7.4) buffer containing 50 mmol/L NaCl, 2 mmol/L CaCl2, 20 μg/mL bovine serum albumin (BSA), and 0.1% CHAPS at 37° C. overnight. In this connection, concentrations of the MD8S protein and recombinant IGFBP-5 in the reaction solution were 1.5 μg/mL and 10 μg/mL, respectively.
Using an aliquot of the reaction solution, SDS-PAGE was carried out, and then a transfer to a PVDF membrane and blocking was carried out. Recombinant IGFBP-5 was detected by reacting a biotinylated M2 antibody (Sigma) as the first antibody, followed by a horseradish peroxidase-labeled streptavidin (Amersham) as the second antibody, and by using an ECL Western Blotting Detecting System (Amersham Pharmacia).
Substances inhibiting the activity of digesting IGFBP-5 by the MD8S protein can be screened by the reaction system utilizing western blotting performed in Example 9(2). In this Example, the procedure described in Example 9(2) was repeated, except that various compounds having a hydroxamic acid scaffold as a compound to be tested were added to the reaction system containing the MD8S enzyme solution and recombinant IGFBP-5, to measure an inhibitory intensity of the activity of digesting IGFBP-5. […]

IGFBP-3 = experiment: Activity of digesting IGFBP-3 by MD8S protein; assay type: biochemical; conditions: commercial IGFBP-3 10 μg/mL, MD8S 1.5 μg/mL, 37° C. overnight; new band of 25 kDa
Experimental: (§1) The MD8S enzyme solution obtained in Example 8(1) was reacted with commercially available IGFBP-3 or IGFBP-5 (upstate biotechnology) in a 50 mmol/L tris-HCl(pH7.4) buffer containing 50 mmol/L NaCl, 2 mmol/L CaCl2, 20 μg/mL bovine serum albumin (BSA), and 0.1% CHAPS at 37° C. overnight. In this connection, concentrations of the MD8S protein and IGFBP-3 (or IGFBP-5) in the reaction solution were 1.5 μg/mL and 10 μg/mL, respectively.
(§2) Using an aliquot of the reaction solution, sodium dodecyl sulfate polyacrylamide gel electrophoresis (SDS-PAGE) was carried out, and then a transfer to a PVDF membrane and blocking was carried out. IGFBP-3 was detected using an anti-IGFBP-3 polyclonal antibody (R&D System) as the first antibody and a peroxidase-labeled rabbit anti-goat IgG polyclonal antibody (ZYMED) as the second antibody. IGFBP-5 was detected using an anti-IGFBP-5 polyclonal antibody (upstate biotechnology) as the first antibody and a peroxidase-labeled goat anti-rabbit IgG polyclonal antibody (MBL) as the second antibody.

IGFBP-5 = experiment: Activity of digesting IGFBP-5 by MD8S protein; assay type: biochemical, human; conditions: MD8S 1.5 μg/mL, 37° C. overnight
Experimental: as §1, §2
The MD8S enzyme solution obtained in Example 8(1) was reacted with recombinant IGFBP-5 obtained in Example 9(1) in a 50 mmol/L tris-HCl (pH7.4) buffer containing 50 mmol/L NaCl, 2 mmol/L CaCl2, 20 μg/mL bovine serum albumin (BSA), and 0.1% CHAPS at 37° C. overnight. […]

Row | IC50 (MD8S protein; MD8S 1.5 μg/mL, recombinant IGFBP-5 10 μg/mL, 37° C. overnight, western blot image analysis, read-out: intensity of the inhibition activity (IC50) of the activity of digesting IGFBP-5) [µM] | Molecule | activity of digesting recombinant IGFBP by the MD8S protein in presence of compound (FIG. 3) (MD8S protein; electrophoresis, compound A 1 nmol/L to 10 μmol/L) | activity of digesting IGFBP-3 (IGFBP-3) | activity of digesting IGFBP-5 (IGFBP-5; commercial IGFBP-5 10 μg/mL, new bands 12 to 25 kDa) | activity of digesting recombinant IGFBP-5 (IGFBP-5; recombinant IGFBP-5-FLAG 10 μg/mL)
1 | 3.3 | CCCOCC(C(=O)NC(Cc1ccc(OC)cc1)C(=O)NC)C(CSC)C(=O)O (stereo not drawn) [compound A, N^α-[(3-carboxy-4-methylthio-2-propoxymethyl)butyryl]-N,O-dimethylthyrosineamide] | inhibited |  |  | 
2 |  | MD8S protein: extracellular region of human MD8 protein, 1st to 646th amino acids of SEQ ID NO: 2, with C-terminal FLAG tag (protein, listed as Homo sapiens, C-terminal FLAG tag) MRGLGLWLLGAMMLPAIAPSRPWALMEQYEVVLPRRLPGPRVRRALPSHLGLHPERVSYVLGATGHNFTLHLRKNRDLLGSGYTETYTAANGSEVTEQPRGQDHCFYQGHVEGYPDSAASLSTCAGLRGFFQVGSDLHLIEPLDEGGEGGRHAVYQAEHLLQTAGTCGVSDDSLGSLLGPRTAAVFRPRPGDSLPSRETRYVELYVVVDNAEFQMLGSEAAVRHRVLEVVNHVDKLYQKLNFRVVLVGLEIWNSQDRFHVSPDPSVTLENLLTWQARQRTRRHLHDNVQLITGVDFTGTTVGFARVSAMCSHSSGAVNQDHSKNPVGVACTMAHEMGHNLGMDHDENVQGCRCQERFEAGRCIMAGSIGSSFPRMFSDCSQAYLESFLERPQSVCLANAPDLSHLVGGPVCGNLFVERGEQCDCGPPEDCRNRCCNSTTCQLAEGAQCAHGTCCQECKVKPAGELCRPKKDMCDLEEFCDGRHPECPEDAFQENGTPCSGGYCYNGACPTLAQQCQAFWGPGGQAAEESCFSYDILPGCKASRYRADMCGVLQCKGGQQPLGRAICIVDVCHALTTEDGTAYEPVPEGTRCGPEKVCWKGRCQDLHVYRSSNCSAQCHNHGVCNHKQECHCHAGWAPPHCAKLLTE |  | exhibits an activity of digesting IGFBP-3 | exhibits an activity of digesting IGFBP-3 and IGFBP-5 | exhibits an activity of digesting IGFBP-5
